Assay results reported in patent publication US20110200585A1.
“And” between values parts separate entries of the source, which are not always exact repeats. Equal entries are not always repeated. Values belong to the binder of their own block, whether it stands above or below them.

Tests used:
[1] = target: human CD127 ECD (human) (UniProt P16871); assay: SPR, BIAcore 3000; antibody captured on anti-human IgG (Fc), CD127 ECD 16-512 nM as analyte, 1:1 Langmuir fit
[2] = target: IL7R (analyte of the CDRH3 variant assays) (Homo sapiens (Human)) (UniProt P16871); assay: SPR competition, BIAcore; IL7R 64 nM pre-incubated 3 h with antibody 1-256 nM, run over immobilised IL7 (competitor); run 1
[3] = target: IL7R (analyte of the CDRH3 variant assays) (Homo sapiens (Human)) (UniProt P16871); assay: SPR, BIAcore T100; antibody captured on anti-human IgG (CM3), IL-7R 1-256 nM as analyte, 1:1 fit, 25 C
[4] = target: IL7R (analyte of the CDRH3 variant assays) (Homo sapiens (Human)) (UniProt P16871); assay: SPR, BIAcore 3000; antibody captured on anti-human IgG (CM5), IL7R 1-64 nM as analyte, 1:1 fit, 25 C
[5] = target: IL7R (analyte of the CDRH3 variant assays) (Homo sapiens (Human)) (UniProt P16871); assay: SPR competition, BIAcore; IL7R 64 nM pre-incubated 3 h with antibody 0.25-256 nM, run over immobilised IL7 (competitor); run 2
[6] = target: human CD127 ECD (human) (UniProt P16871); assay: SPR, BIAcore 3000; antibody captured on anti-human IgG (Fc), CD127 ECD as analyte; the column head says M, but kd/ka gives 1.9e-8 M, so nM is meant
[7] = target: human CD127 ECD (human) (UniProt P16871); assay: SPR, BIAcore 3000; antibody captured on anti-human IgG (Fc), CD127 ECD as analyte; the column head says M, but kd/ka gives 1.5e-8 M, so nM is meant
[8] = target: human CD127 ECD (human) (UniProt P16871); assay: SPR, BIAcore 3000; antibody captured on anti-human IgG (Fc), CD127 ECD as analyte; the column head says M, but kd/ka gives 2.8e-8 M, so nM is meant
[9] = target: human CD127 ECD (human) (UniProt P16871); assay: SPR, BIAcore 3000; antibody captured on anti-human IgG (Fc), CD127 ECD as analyte; the column head says M, but kd/ka gives 1.7e-8 M, so nM is meant

B1: 1A11 Chimera (antibody, human IgG1, V domains shown)
VH: EVQLQQSGPELLKPGASMKISCKASGYSFTGYTMNWVKQSHGKNLEWIGLINPYNGVTSYNQKFKGKATLTVAKSSSTAYMELLSLTSEDSAVYYCARGDGNYWYFDVWGAGTTVTVSS
VL: EIVLTQSPAITAASLGQKVTITCSASSSVTYMHWYQQKSGTSPKPWIYEISKLASGVPVRFSGSGSGTSYSLTISSMEAEDAAIYYCQEWNYPYTFGGGTKLEIK
Kd [1]: 3.22 nM
koff [1]: 0.000298 s⁻¹
kon [1]: 92600 M⁻¹ s⁻¹

B2: 1A11 H3L6 (antibody, V domains shown)
VH: QVQLVQSGAEVKKPGASVKVSCKASGYTFTGYTMNWVRQAPGQGLEWMGLINPYNGVTSYNQKFKGRVTLTRDTSISTAYMELSRLRSDDTAVYYCARGDGNYWYFDVWGQGTTVTVSS
VL: EIVLTQSPATLSLSPGERATLSCSASSSVTYMHWYQQKPGQAPRPWIYEISKLASGVPARFSGSGSGTDYTLTISSLEPEDFAVYYCQEWNYPYTFGGGTKVEIK
Kd [1]: 155 nM
koff [1]: 0.00282 s⁻¹
kon [1]: 18200 M⁻¹ s⁻¹

B5: 1A11 H3L5 (antibody, V domains shown)
VH: QVQLVQSGAEVKKPGASVKVSCKASGYTFTGYTMNWVRQAPGQGLEWMGLINPYNGVTSYNQKFKGRVTLTRDTSISTAYMELSRLRSDDTAVYYCARGDGNYWYFDVWGQGTTVTVSS
VL: EIVLTQSPATLSLSPGERATLSCSASSSVTYMHWYQQKPGQAPRPWIYEISKLASGIPARFSGSGSGTDYTLTISSLEPEDFAVYYCQEWNYPYTFGGGTKVEIK
Kd [1]: 207 nM
koff [1]: 0.00607 s⁻¹
kon [1]: 29400 M⁻¹ s⁻¹

B6: 6A3 H4-61_6L27 (antibody, V domains shown)
VH: QVQLQESGPGLVKPSETLSLTCTVSGYSVSTDYAWNWIRQPPGKGLEWIGYIFYSGSTTYTPSLKSRVTISRDTSKNQFSLKLSSVTAADTAVYYCARGGYDVNYFDYWGQGTTVTVSS
VL: DIQMLQSPSSLSASVGDRVTITCLASQTIGYWLAWYQQKPGKAPKLLIYAATRLADGVPSRFSGSGSGTMFTLTISSLQPEDFATYYCQQFFSYPWTFGGGTKVEIK
koff [1]: 0.000299 s⁻¹
kon [1]: 16000 M⁻¹ s⁻¹
Kd [6]: 19 nM

B8: 6A3 H4-61_7L27 (antibody, V domains shown)
VH: QVQLQESGPGLVKPSETLSLTCTVSGYSVTTDYAWNWIRQPPGKGLEWIGYIFYSGSTTYTPSLKSRVTISRDTSKNQFSLKLSSVTAADTAVYYCARGGYDVNYFDYWGQGTTVTVSS
VL: DIQMLQSPSSLSASVGDRVTITCLASQTIGYWLAWYQQKPGKAPKLLIYAATRLADGVPSRFSGSGSGTMFTLTISSLQPEDFATYYCQQFFSYPWTFGGGTKVEIK
Kd [8]: 28 nM
koff [1]: 0.00104 s⁻¹
kon [1]: 37700 M⁻¹ s⁻¹

Other lines, results leading:

IC50 [2]: 15.2 nM
Kd [3]: 0.04 nM
koff [3]: 3.32e-05 s⁻¹
kon [3]: 826000 M⁻¹ s⁻¹
Kd [4]: 0.668 nM
koff [4]: 0.0002 s⁻¹
kon [4]: 300000 M⁻¹ s⁻¹
B3: BPC4402 (antibody, V domains shown)
VH: QVQLVQSGAEVKKPGASVKVSCKASGYTFTGYTMNWVRQAPGQGLEWMGLINPYNGVTSYNQKFKGRVTLTRDTSISTAYMELSRLRSDDTAVYYCARGDGNYWYIDVWGQGTTVTVSS
VL: EIVLTQSPATLSLSPGERATLSCSASSSVTYMHWYQQKPGQAPRPLIYEISKLASGIPARFSGSGSGTDFTLTISSLEPEDFAVYYCQEWNYPYTFGGGTKVEIK

IC50 [2]: 14.8 nM
Kd [3]: 0.034 nM
koff [3]: 3.06e-05 s⁻¹
kon [3]: 910000 M⁻¹ s⁻¹
Kd [4]: 0.582 nM
koff [4]: 0.000196 s⁻¹
kon [4]: 337000 M⁻¹ s⁻¹
IC50 [5]: 14.9 nM and 15.2 nM
B4: BPC4401 (antibody, V domains shown)
VH: QVQLVQSGAEVKKPGASVKVSCKASGYTFTGYTMNWVRQAPGQGLEWMGLINPYNGVTSYNQKFKGRVTLTRDTSISTAYMELSRLRSDDTAVYYCARGDGNYWYHDVWGQGTTVTVSS
VL: EIVLTQSPATLSLSPGERATLSCSASSSVTYMHWYQQKPGQAPRPLIYEISKLASGIPARFSGSGSGTDFTLTISSLEPEDFAVYYCQEWNYPYTFGGGTKVEIK

Kd [7]: 15 nM
koff [1]: 0.00037 s⁻¹
kon [1]: 24300 M⁻¹ s⁻¹
B7: 6A3 H4-61_8L27 (antibody, V domains shown)
VH: QVQLQESGPGLVKPSETLSLTCTVSGYSVTTDYAWNWIRQPPGKGLEWIGYIFYSGSTTYTPSLKSRITISRDTSKNQFSLKLSSVTAADTAVYYCARGGYDVNYFDYWGQGTTVTVSS
VL: DIQMLQSPSSLSASVGDRVTITCLASQTIGYWLAWYQQKPGKAPKLLIYAATRLADGVPSRFSGSGSGTMFTLTISSLQPEDFATYYCQQFFSYPWTFGGGTKVEIK

Kd [9]: 18 nM
koff [1]: 0.00122 s⁻¹
kon [1]: 69900 M⁻¹ s⁻¹
B9: 6A3 H4-61_9L27 (antibody, V domains shown)
VH: QVQLQESGPGLVKPSETLSLTCTVSGYSVTTDYAWNWIRQPPGKGLEWMGYIFYSGSTTYTPSLKSRITISRDTSKNQFSLKLSSVTAADTAVYYCARGGYDVNYFDYWGQGTTVTVSS
VL: DIQMLQSPSSLSASVGDRVTITCLASQTIGYWLAWYQQKPGKAPKLLIYAATRLADGVPSRFSGSGSGTMFTLTISSLQPEDFATYYCQQFFSYPWTFGGGTKVEIK
